Laboratory results as given in US20040038217.

Columns and labels:
[1] = system: PNA-Caspase 3 dual-labeled peptide chimera: PNA-Linker-Cys His His His His His His Asp Glu Val Asp Ala Lys-(C18-spacer)-Cy3
[2] = system: PNA-peptide chimera II
[3] = system: PNA-peptide chimera III
[4] = system: biotinylated Caspase 3 peptide substrate with end-labeled fluorescent dye Cy5
[5] = system: PNA-peptide chimera I

Substance: Caspase 3
- fluorescent Cy3/Cy5 signal ratio (Caspase 3 at 0 to 4 ng/µl) [1]: the fluorescent Cy3/Cy5 signal ratio decreases from approximately 1 to 0.6
- percentage of the residual assay intensity ratio relative to the negative control [2]: 82.35%
- percentage of the residual assay intensity ratio relative to the negative control [3]: 112.03%
- Cy5 signal intensity at 1000 ms integration of uncut substrate (Caspase 3 at 8 to 0 microgram/ml) [4]: The Cy5 signal intensity at 1000 ms integration increased from about 2600 to 5200 units for a decreasing Caspase 3 concentration ranging from 8 to 0 microgram/ml
- percentage of the residual assay intensity ratio relative to the negative control [5]: 53.48%

Substance: Caspase 8
- percentage of the residual assay intensity ratio relative to the negative control [2]: 69.41%
- percentage of the residual assay intensity ratio relative to the negative control [3]: 59.89%
- percentage of the residual assay intensity ratio relative to the negative control [5]: 73.77%

Substance: Caspase 6
- percentage of the residual assay intensity ratio relative to the negative control [2]: 41.18%
- percentage of the residual assay intensity ratio relative to the negative control [3]: 79.08%
- percentage of the residual assay intensity ratio relative to the negative control [5]: 91.80%
